Data from patent publication US20240124553A1.

Legend:
[1] = molecular target: Sindbis virus strain TR339 (virions; also structural proteins on infected Vero cells) (Sindbis virus)
[2] = molecular target: Sindbis virus strain TR339 (virions; also structural proteins on infected Vero cells) (Sindbis virus); experiment: cell-based or functional assay
[3] = molecular target: Mayaro virus (MAYV) structural proteins on infected cells (Mayaro virus); experiment: flow cytometry, surface staining of MAYV-infected Vero cells with serial dilutions, % binding to infected cells

Substance: Du-D1-Mo-D2 MXRA8-Fc (chimeric duck D1 - mouse D2 MXRA8, duck stalk) (from UniProt Q9DBV4 23-65; Q9DBV4 195-293) (Fc fusion)
- neutralisation of SINV-GFP infection; IC50 (read off the curve) [1]: 0.3 µg/mL
- neutralization of SINV TR339 infection, EC50 against that of duck MXRA8-Fc [2]: 3 fold
- EC50 (read off the curve) [3]: 0.04 µg/mL
